Results from patent publication US20200299380A1 (published 2020).

T1: human ULBP-1-Fc (R&D systems) (human, UniProt Q9BZM6 26-216, limits assumed)
T1 construct: Bought; not shown: Fc of the bought fusion protein
T1 sequence (looked up): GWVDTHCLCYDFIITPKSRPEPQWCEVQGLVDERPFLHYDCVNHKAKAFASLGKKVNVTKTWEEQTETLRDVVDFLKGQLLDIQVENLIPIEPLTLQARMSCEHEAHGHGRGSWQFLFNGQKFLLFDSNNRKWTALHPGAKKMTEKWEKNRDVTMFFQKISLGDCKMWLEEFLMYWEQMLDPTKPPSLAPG

T2: human ULBP-2-Fc (R&D systems) (human, UniProt Q9BZM5 26-217, limits assumed)
T2 construct: Bought; not shown: Fc of the bought fusion protein
T2 sequence (looked up): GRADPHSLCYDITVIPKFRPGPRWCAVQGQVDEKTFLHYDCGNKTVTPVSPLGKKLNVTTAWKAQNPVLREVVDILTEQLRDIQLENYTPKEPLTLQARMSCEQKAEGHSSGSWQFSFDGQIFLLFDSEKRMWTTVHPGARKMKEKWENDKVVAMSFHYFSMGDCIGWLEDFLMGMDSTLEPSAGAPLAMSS

T3: MICA*001 expressed at the cell surface (human, UniProt Q29983 24-297)
T3 construct: the protein on cells also has its transmembrane and cytoplasmic parts (Genbank AAB41060); also called C1R-MICA*001; C1R-MICA*01
T3 sequence: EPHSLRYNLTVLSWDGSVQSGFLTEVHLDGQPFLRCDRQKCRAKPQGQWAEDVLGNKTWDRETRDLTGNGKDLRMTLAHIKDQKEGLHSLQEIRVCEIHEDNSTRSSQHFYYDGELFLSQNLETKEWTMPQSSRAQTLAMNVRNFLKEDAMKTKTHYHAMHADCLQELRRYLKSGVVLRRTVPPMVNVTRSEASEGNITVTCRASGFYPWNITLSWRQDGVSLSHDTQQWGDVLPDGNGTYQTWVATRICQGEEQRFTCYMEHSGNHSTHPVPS

T4: MICA*004 expressed at the cell surface (human, UniProt Q29983 24-297)
T4 construct: also called C1R-MICA*004; C1R-MICA*04
T4 chain: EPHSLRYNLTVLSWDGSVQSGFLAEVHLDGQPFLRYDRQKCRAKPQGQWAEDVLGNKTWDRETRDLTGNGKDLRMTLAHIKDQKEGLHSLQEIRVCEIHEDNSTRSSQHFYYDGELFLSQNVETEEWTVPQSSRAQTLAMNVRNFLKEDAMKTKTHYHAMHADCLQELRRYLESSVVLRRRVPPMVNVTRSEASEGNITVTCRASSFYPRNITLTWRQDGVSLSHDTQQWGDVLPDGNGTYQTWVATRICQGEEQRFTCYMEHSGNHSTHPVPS

T5: MICA*001-BirA (human, UniProt Q29983 24-297)
T5 construct: also called MICA-BirA; MICA*01-BirA; not shown: BirA tag
T5 sequence: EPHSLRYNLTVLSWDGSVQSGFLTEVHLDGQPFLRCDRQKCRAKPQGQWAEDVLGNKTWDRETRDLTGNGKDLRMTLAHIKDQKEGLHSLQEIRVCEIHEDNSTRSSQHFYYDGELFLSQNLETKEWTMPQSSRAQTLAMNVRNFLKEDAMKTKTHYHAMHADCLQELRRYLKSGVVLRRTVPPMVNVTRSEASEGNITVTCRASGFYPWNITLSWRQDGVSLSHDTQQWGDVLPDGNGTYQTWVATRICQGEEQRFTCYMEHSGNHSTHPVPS


Experiments:
[1] = biological target: T1, human ULBP-1-Fc (R&D systems); assay: SPR, antibody injected over immobilized ULBP-1-Fc
Procedure: (§1) For cross-binding study, the human ULBP-1-Fc (R&D systems*), MICB-Fc (*), ULBP-2-Fc (*) and ULBP-3-Fc (*) recombinant proteins were covalently immobilized respectively on the flow cell one to four of a CM5 sensorchip. Anti-MICA antibodies (at a constant concentration of 10 μg/ml) were injected for 2 minutes at a flow rate of 10 μl/min onto the four flow cells in parallel. After each cycle, Sensorchip was regenerated by a five second injection of appropriate regeneration buffer.

[2] = biological target: T2, human ULBP-2-Fc (R&D systems); assay: SPR, antibody injected over immobilized ULBP-2-Fc
Procedure: as §1

[3] = biological target: T3, MICA*001 expressed at the cell surface; assay: flow cytometry on C1R transfectant cells, 4-parameter logistic fit
Procedure: (§2) The binding of antibodies obtained from the first, second and third immunization series (including CHG1-M-MIA-19E9, CHG1-M-MIA-9C10, CHG1-M-MIA-6E4, CHG1-M-MIA-20C6, CHG1-M-MIA-16A8, CHG1-M-MIA-12A10, CHG1-M-MIA-10A7, CHG1-M-MIA-18E8, CHG1-M-MIA-10F3, CHG1-M-MIA-15F9 and CHG1-M-MIA-14B4) were tested for binding to MICA-expressing CR1 transfectant cells C1R-MICA*001, C1R-MICA*004, C1R-MICA*007 and C1R-MICA*008 (Pr. A. Steinle, Eberhard-Karls University Tuebingen, Germany) described in Salih et al. (2003) Blood 102(4): […]. Binding was analyzed by flow cytometry.
(§3) Cells were harvested and stained in PBS 1×/BSA 0.2%/EDTA 2 mM buffer during 30 minutes at 4° C. using a dose-range of the anti-MICA mAbs. After two washes in staining buffer, cells were stained for 30 min at 4° C. with mouse anti-human IgG1-PE monoclonal antibodies (1/11). After two washes, stainings were acquired on a BD FACS Canto II and analyzed using the FlowJo software.
(§4) Antibodies CHG1-M-MIA-19E9, CHG1-M-MIA-9C10, CHG1-M-MIA-6E4, CHG1-M-MIA-20C6, CHG1-M-MIA-12A10, CHG1-M-MIA-10A7, CHG1-M-MIA-18E8, CHG1-M-MIA-10F3, and CHG1-M-MIA-15F9 bound to each of the C1R-MICA*001, C1R-MICA*004, C1R-MICA*007 and C1R-MICA*008 cells (see FIG. 1A for antibodies CHG1-M-MIA-19E9, CHG1-M-MIA-9C10, CHG1-M-MIA-6E4, CHG1-M-MIA-20C6, CHG1-M-MIA-12A10, CHG1-M-MIA-10F3, and FIG. 1B for antibodies, CHG1-M-MIA-18E8, CHG1-M-MIA-15F9, CHG1-M-MIA-10A7). […] EC50 values are shown in Table C in μg/ml (calculated using a 4-parameter logistic fit).

[4] = biological target: T4, MICA*004 expressed at the cell surface; assay: as above
Procedure: as §2, §3, §4

MICA*001-BirA = biological target: T5, MICA*001-BirA; assay: SPR single cycle kinetics, monovalent mean KD at pH 7.4, antibody captured on Protein-G chip, MICA-BirA injected
Procedure: For monovalent affinity measurement, chimeric anti-MICA antibodies were captured onto a Protein-G chip.
Affinities were determined using single cycle kinetics (SCK). SCK cycles were as follows: Successive 120s injections at 30 μl/min of 5 serial dilutions (0.01 to 100 nM) of MICA-His or MICA-BirA in ascending order (or of buffer for the blank injections to be subtracted during the analysis). After the last concentration is injected, complex is left to dissociate for 600s before regeneration by a 10s injection of appropriate regeneration buffer at 40 μl/min. After the regeneration, chip is left to stabilise for 60s in running buffer. Curves are fitted using Biacore T100 Evaluation software.

| Binder | binding result [1] | binding result [2] | EC50 [3] [µg/mL] | EC50 [4] [µg/mL] | Kd (MICA*001-BirA) [nM] |
| --- | --- | --- | --- | --- | --- |
| CHG1-M-MIA-16A8 (antibody, V domains shown, also called CHG1-M-MIA2-16A8; chimeric anti-MICA 16A8) VH: EVQLVESGGGLVKPGGSLKLSCAASGFTFSRYAMSWVRQTPEKRLEWVATIFSGGSYTYYPDSVKGRFTISRDNANNTLYLQMSSLKAEDTAMYFCARPNWERTFDYWGQGTTLTVSS VL: not shown | no binding (tested: 10 µg/ml) | no binding (tested: 10 µg/ml) | 1.07 | 0.44 | 11.5 |
| CHG1-M-MIA-20C6 (antibody, V domains shown, also called chimeric anti-MICA 20C6) VH: QITLKESGPGILKPSQTLSLTCSFSGFSLSTSGMGVGWIRQPSGKGLEWLAHIWWDDDKYYNPSLKSQLTISKDTSRNQVFLRITSVDTADTATYYCARRTQGYFDYWGQGTTLTVSS VL: DIVMTQSPATLSVTPGDRVSLSCRASQSISDYLHWYQQKSHESPRLLIKYASQSISGIPSRFSGSGSGSDFTLSINSVEPEDVGVYYCQNGHSFPWTFGGGTKLEIKR | no binding (tested: 10 µg/ml) | no binding (tested: 10 µg/ml) | 0.26 | 0.05 | 40 |
| CHG1-M-MIA-6E4 (antibody, V domains shown, also called chimeric anti-MICA 6E4) VH: EVQLVESGGALVKPGGSLKLSCAASGFTFSYYAMSWVRQTPEKRLEWVATISRGGNYIYYTDSVKGRFTISRDNAKNTLYLQMTSLRSEDTAMFYCASISDYDGAWLAYWGQGTTLTVSS VL: DVLMTQTPLSLPVSLGDQASISCRSSQSIIHTNGNTYLEWYLQKPGQSPKLLIYKISNRFSGVPDRFSGSGSGTDFTLKISRVEAEDLGVYYCFQGSHVPWTFGGGTKLEIKR | no binding (tested: 10 µg/ml) | no binding (tested: 10 µg/ml) | 1.96 | 2.67 | 8.9 |
